Experiments:
Chimpanzee PBMCs = assay: Mediator induction in chimpanzee PBMCs (ELISA of supernatants); type: cell-based
Protocol: Chimpanzee or human PBMCs were isolated and treated with either control media, human IL-18 at 100 ng/ml, or IL-18 (100 ng/ml) in combination with IL-2 at 3 ng/ml. Supernatants were frozen following incubation for 24, 48, 72, or 96 hours. Mediator levels were analyzed by ELISA. […] Moreover there is synergy between IL-2 and IL-18 at inducing GM-CSF, IL-8, Neopterin, and IFN-gamma (FIGS. 9 and 10). These observations were confirmed in multiple chimp and human donors.
The highest protein levels were detected in samples obtained 96 hours post-treatment, with the exception of IFN-gamma that reached a maximum level at 24 hours.
In this study, treatment with IL-2 alone was used as control.

[1] = system: GM-CSF, IFN-gamma, and TNF mRNA; assay: Cytokine mRNA induction in spleens of uninfected mice (quantitative real-time PCR); type: in vivo, Female Balb/C mice
HSV-1 (SC-16) = assay: Lethal systemic HSV infection model; type: in vivo, mice
Protocol: Several studies evaluated the effect of murine IL-18 in a lethal systemic HSV infection model. Murine IL-18 was administered IP at −2 hours, 24 hours, and 48 hours following IP infection with HSV-1 (SC-16). IL-18 treatment at 10-ug/mouse lead to 40% survival in all studies, relative to no survival of vehicle treated animals (FIG. 5). […] In a single study, two daily doses of IL-18 at 100 ug/mouse lead to 70% survival (not shown).

Hepatitis B Virus (HBV) = assay: HBV transgenic mice, liver HBV DNA by Southern blot; type: in vivo; conditions: Day 3
Protocol: HBV transgenic mice (Guidotti et. al, 1995. J. Virol 69:6158-6169) were treated with three daily subcutaneous injections (Days 0, 1 and 2) of 4 different doses (100, 10, 1 and 0.1 microgram) of recombinant murine IL-18, with analysis of the liver for HBV DNA on Day 3 by Southern blot.

TNF-α, IFN-γ, and GM-CSF = assay: Cytokine protein induction in uninfected mice (ELISA of sera and spleen homogenates); type: in vivo, Female Balb/C mice
[2] = post-treatment, IL-18 100 ng/ml

| Molecule | IL-8 induction (Chimpanzee PBMCs; IL-18 100 ng/ml, FIG. 9(a), donor species of FIG. 9 not given) | Neopterin induction (Chimpanzee PBMCs; IL-18 100 ng/ml, FIG. 9(b), donor species of FIG. 9 not given) | GM-CSF induction (Chimpanzee PBMCs; IL-18 100 ng/ml, FIG. 9(c), donor species of FIG. 9 not given) | IFN-gamma induction (Chimpanzee PBMCs; IL-18 100 ng/ml, FIG. 9(d), donor species of FIG. 9 not given) | inducing cytokine expression in chimp PBMCs (Chimpanzee PBMCs; human IL-18 100 ng/ml, 24-96 hours) | time of highest protein levels (IL-8, Neopterin, GM-CSF) (Chimpanzee PBMCs; [2]) | time of maximum IFN-gamma level (Chimpanzee PBMCs; [2]) | IFN γ mRNA induction over vehicle ([1]; 2.5-6 hours post injection, real-time PCR, spleen) | TNF mRNA induction ([1]; quantitative real-time PCR) | GM-CSF mRNA induction relative to vehicle control ([1]; real-time PCR, data not shown) | survival (HSV-1 (SC-16); 10-ug/mouse IP at -2, 24 and 48 hours, vehicle: no survival) | time to death (HSV-1 (SC-16); all studies) | survival (HSV-1 (SC-16); two daily doses at 100 ug/mouse, single study, not shown) | reduction of liver HBV DNA at lowest dose (Hepatitis B Virus (HBV); 0.1 micrograms sc Days 0, 1, 2) | reduction of liver HBV DNA at higher doses (Hepatitis B Virus (HBV); 1, 10, 100 microgram sc Days 0, 1, 2) | virus replication (levels of viral DNA in liver) (Hepatitis B Virus (HBV); three daily sc injections, 100, 10, 1 and 0.1 microgram) | induction of GM-CSF protein (TNF-α, IFN-γ, and GM-CSF; IP 10 or 100 ug) | IFN levels in sera and spleens (TNF-α, IFN-γ, and GM-CSF; IP 10 or 100 ug murine IL-18, by 2.5 hours post-treatment) | induction of TNF-α protein (TNF-α, IFN-γ, and GM-CSF; IP 10 or 100 ug, called minimal induction) |
| --- | --- | --- | --- | --- | --- | --- | --- | --- | --- | --- | --- | --- | --- | --- | --- | --- | --- | --- | --- |
| human IL-18: human IL-18, amino acid sequence SEQ ID NO:1; 157 amino acid cytokine, interferon-γ-inducing factor | 14 fold | 7 fold | 100 fold | 8 fold | active | 96 h | 24 h | – | – | – | – | – | – | – | – | – | – | – | – |
| murine IL-18: murine IL-18, amino acid sequence SEQ ID NO:2; interferon-γ-inducing factor cytokine (protein, listed as Mus musculus) NFGRLHCTTAVIRNINDQVLFVDKRQPVFEDMTDIDQSASEPQTRLIIYMYKDSEVRGLAVTLSVKDSKMSTLSCKNKIISFEEMDPPENIDDIQSDLIFFQKRVPGHNKMEFESSLYEGHFLACQKEDDAFKLILKKKDENGDKSVMFTLTNLHQS | – | – | – | – | – | – | – | up to 20 fold | observed | 6-10 fold | 40% | delay in time to death | 70% | some reduction | greater reductions | dose-dependent reduction | no induction | 2 ng/mL | 100 pg/mL |

Reference: US20030113292A1, “Methods of treating viral diseases with il-18 and il-18 combinations” (priority 2000, published 2003)
